# pKd: −log10 of the molar value.
# Tested on: var2CSA (PfEMP1) (Plasmodium falciparum CS2)
# Assay: cell binding, microfluidic partitioning and qPCR
# Conditions: 2'-fluoro pyrimidines, TBB: 20 mM HEPES pH 7.4, 150 mM NaCl, 2 mM CaCl2, room temperature (cell binding); for binding signal: CS2 vs uninfected RBCs
Sequence,"binding signal (defines non-specific threshold, BLI in TBB) [ddCp]","binding signal (100 nM, P = 0.0002, BLI in …) [ddCp]","pKd (apparent Kd on CS2 infected RBCs, no enrichment on DC-J, BLI in TBB)"
GGGAGCUCAGAAUAAACGCUCAAAUGUCUCCAGCUCUUGUGGCGAACCCAAGCGGGUUGACCAGAAUGCAUCAUUCGACAUGAGGCCCGGAUCCGGC [scr8.1-1],1.24,–,–
GGGAGCUCAGAAUAAACGCUCAACAACGGAUCACACGCAAGCGAAUCUAUGUCCUUCGGGUCUAAGGGUCGCUUUCGACAUGAGGCCCGGAUCCGGC [8.1-1],–,3.12,7.85

# — publication PMC4486934
